Reference: patent US10393755B2, “Compositions and methods for treating eye infections and disease” (UNIVERSITY OF VIRGINIA PATENT FOUNDATION, priority 2014, dated 2019)

Columns and labels:
HCE-T cells = assay: FOXO3 translocation assay in IFNG/TNF stressed HCE-T cells; format: cell-based, human; settings: dry eye tears 1:100, 10 nM, 15 min
Protocol: For FOXO3 translocation assays, HCE-T cells were grown in triplicate to subconfluence (˜50%) on coverslips in α-MEM (5.54 mm glucose), sensitized overnight in IFNG (100 units/ml; Roche Applied Science), and treated for 15 min with normal or dry eye tears diluted 1:100 in α-MEM together with TNF (50 ng/ml; PeproTech, Rocky Hill, N.J.) without or with 10 nm lacritin or C-25. Cells were washed, fixed with 4% paraformaldehyde, and immunostained for FOXO3 (1:200; Millipore, Billerica, Mass.) followed by goat anti-rabbit secondary antibody and visualization on a Zeiss LSM 700 microscope.

[1] = tested on: primary human corneal epithelial cells; assay: FOXO3 translocation in INFG/TNF stressed primary human corneal epithelial cells; format: cell-based
Aire(−/−) dry eye mice = assay: Topical treatment of Aire(-/-) dry eye mice; format: in vivo, mouse
Protocol: Autoimmune regulator (Aire)-deficient [Aire^−/−] mice spontaneously develop dry eye without need for dry chambers or scopolamine Aire^−/− mice were dosed three times daily for three weeks with 10 μl of 50 μg/mllacritin, or in controls with PBS. Several different assays monitored the consequences. […] Topical lacritin reduced CD4+T cell infiltration into lacrimal glands measured as the number of lymphocytic foci/per millimeter square area of lacrimal gland tissue (3.68±0.65 per mm sq lacritin vs. 9.7+1.5 per mm sq PBS; P=0.01), but had no apparent effect on the pattern or distribution of CD4+T cells into either the corneal stroma (14.6±1.6 lacritin vs 12.4±2.1 PBS) or the limbus (29.6±2.5 lacritin vs 34.6±2.9 PBS.
To assess ocular surface mucosal damage from dry eye, eyes of Aire(−/−) dry eye mice were topically administered lissamine green that increasingly stained PBS-treated eyes with time (See FIG. 4C). […] Thus, topical lacritin, and its bioactive fragments thereof, diminished lacrimal gland inflammation and corneal staining in dry eye, and promoted ocular surface differentiation. Importantly, suppression of inflammation and promotion of tearing was achieved without direct contact with inflammatory cells nor with tear producing cells.

corneal sensory nerves = assay: Corneal sensory nerve activity monitored at the trigeminal ganglion; format: in vivo, rat
Source text: Topical lacritin stimulates tearing even without physical access to lacrimal acinar cells. The rapidity of the response is in keeping with corneal sensory nerve activation. Individual corneal sensory nerve activity was monitored at the level of the trigeminal ganglion in rats via previously described methods. Emerging from these studies was the observation that topical lacritin is neural stimulatory. […] The ‘dry response’ refers to neural activation as a consequence of drying of the cornea, which is thought to be a critical TRPM8-mediated stimulus for tearing, while the ‘wet response’ occurs when the agonist is present at the corneal nerve terminals. […] Apparent inhibition of the action potentials by lacritin during wet cornea was small because the TRPM8 activity during wet cornea is low to begin with, while it reaches optimal level during dry cornea when dynamic cooling of the ocular surface is taking place. Lacritin may also increase TRPM8 neural density.

[2] = format: in vitro ADME, human
Protocol: A limitation of most synthetic peptide drugs is their protease sensitivity. […] Retropepsin would inactivate LACRIPEP, while cathepsin K would have no effect. However neither protease is found in normal human tears. Nonetheless, tears are rich in other proteases. We therefore incubated LACRIPEP in normal human tears at 37° C. for 2, 4, 6 and 16 hr. For immunoblotting, we first removed all endogenous lacritin by immunodepletion. […] (FIG. 6B).

E. coli = assay: Lacritin inhibition (colony count) assay, E. coli; format: cell-based; settings: 2 uM, mid-log E. coli
Protocol: (§1) Bacterial Growth, SYTOX Green Assays, and on Column Cleavage—E. coli (ATCC (Manassas Va.) catalog no. 10536), S. epidermidis (ATCC catalog no. 12228), and P. aeruginosa (ATCC catalog no. 9027) were grown to mid-log phase in 50 ml of Luria-Bertani (LB) medium and washed three times in phosphate buffer containing 10 mM NaCl (pH 7.2; PB—NaCl) with centrifugation. Pellets were resuspended in 1 ml of PB—NaCl.
(§2) For lacritin inhibition assays, 50 ul of bacterial pellets each diluted 1:100 in PB—NaCl were incubated for 1.5 h (37° C.) with 100 ul of lacritin, lacritin truncations, or synthetic peptides at a final concentration of 0.1-6 uM. Mixtures were diluted 1:10 in PB—NaCl before plating 100 ul in quadruplicate on LB agar plates for overnight growth at 37° C. Colonies were manually counted. In other experiments, mid-log E. coli was treated at 37° C. for 0, 1, 2, or 3 h with 2 uM lacritin or lacritin truncations or with ampicillin (5 uM) or tetracycline (2 uM). After each treatment, 100 ul was centrifuged, resuspended in 1 ml of PB—NaCl, and plated (100 ul) onto LB agar for overnight growth (37° C.) and colony counting.

P. aeruginosa = assay: Lacritin inhibition (colony count) assay, P. aeruginosa; format: cell-based; settings: 2 uM, mid-log P. aeruginosa
Protocol: as §1, §2

S. epidermidis = assay: Lacritin inhibition (colony count) assay, S. epidermidis; format: cell-based; settings: 2 uM, mid-log S. epidermidis
Protocol: as §1, §2

bacteria = assay: Lacritin inhibition (colony count) assay, bacterium not given; format: cell-based; settings: whole protein
Protocol: as §1, §2

basal tearing = settings: Sumadre et al. 2011, cited from earlier work

B1: lacritin: 12.3 kDa secreted tear glycoprotein; recombinant, generated in Escherichia coli (protein, listed as Homo sapiens)
chain: MKFTTLLFLAAVAGALVYAEDASSDSTGADPAQEAGTSKPNEEISGPAEPASPPETTTTAQETSAAAVQGTAKVTSSRQELNPLKSIVEKSILLTEQALAKAGKGMHGGVPGGKQFIENGSEFAQKLLKKFSLLKPWA
FOXO3 translocation to the cytoplasm by dry eye tears spiked with the substance (HCE-T cells): translocated FOXO3 to the cytoplasm
FOXO3 translocation [1]: translocated FOXO3
Keratin 10 levels (skin epidermal marker) (Aire(−/−) dry eye mice): diminished levels
Keratin 12 expression (corneal marker) (Aire(−/−) dry eye mice): 80.1±4.8%
Lissamine green staining (Aire(−/−) dry eye mice): −0.417±0.06
Lymphocytic foci per millimeter square area of lacrimal gland tissue (CD4+T cell infiltration) (Aire(−/−) dry eye mice; three times daily for three weeks, 10 μl of 50 μg/ml): 3.68±0.65 per mm sq
CD4+T cells in corneal stroma (Aire(−/−) dry eye mice; three weeks): 14.6±1.6
CD4+T cells in limbus (Aire(−/−) dry eye mice; three weeks): 29.6±2.5
Corneal neuron activity immediately after application (corneal sensory nerves; 10 μM, from ˜12 before): ~8 spikes/s
Wet response after 1 hr and washout (corneal sensory nerves; 10 μM, from ˜12 before): ~16 spikes/s
Dry response after 1 hr and washout (corneal sensory nerves; 10 μM, from ˜20 before): ~23 spikes/s
Neural dry response (corneal sensory nerves; topical): enhanced
Cross-linking of monomer spiked into immunodepleted tears [2]: formed dimers, trimers and tetramers
Appearance of colonies (E. coli): no effect on the appearance of colonies
Appearance of colonies (P. aeruginosa): no effect on the appearance of colonies
Appearance of colonies (S. epidermidis): no effect on the appearance of colonies
Bactericidal activity (bacteria): does not have bactericidal activity
Tolerability of multiple doses per day (basal tearing): well tolerated
Increase of basal tearing over vehicle (basal tearing; acute): 30%
